According to publication PMC8298488, “Structure of the molecular bushing of the bacterial flagellar motor” (Nature Communications, 2021):

B1: FlgI (natural protein, UniProt P15930 20-365, looked up)
chain: ERIRDLTSVQGVRENSLIGYGLVVGLDGTGDQTTQTPFTTQTLNNMLSQLGITVPTGTNMQLKNVAAVMVTASYPPFARQGQTIDVVVSSMGNAKSLRGGTLLMTPLKGVDSQVYALAQGNILVGGAGASAGGSSVQVNQLNGGRITNGAIIERELPTQFGAGNTINLQLNDEDFTMAQQITDAINRARGYGSATALDARTVQVRVPSGNSSQVRFLADIQNMEVNVTPQDAKVVINSRTGSVVMNREVTLDSCAVAQGNLSVTVNRQLNVNQPNTPFGGGQTVVTPQTQIDLRQSGGSLQSVRSSANLNSVVRALNALGATPMDLMSILQSMQSAGCLRAKLEII
notes: FlgI, the periplasmic protein that forms the P ring, Salmonella enterica serovar Typhimurium; made as a precursor with a cleavable N-terminal signal peptide; 26 subunits form the P ring (C26 symmetry); Domains: FlgI-OR (1-11 and 160-230), FlgI-IRU (12-159), FlgI-IRL (231-346); also called P ring protein; I0; source: endogenous, Salmonella HK1002 cells; in the hook-basal body (HBB) purified by …

How the values were obtained:
[1] = target: the molecule itself; assay: cryo-EM structure; LP ring part of hook-basal body (HBB) particle images, C26 symmetry applied, 3.5 Å; HBB purified from Salmonella HK1002; final buffer 20 mM Tris-HCl pH 8.0, 150 mM NaCl, 0.05% Triton X-100
[2] = target: B1; assay: as above; details: both partners purified

## B1
[1]
  stoichiometry N: 26

B2: FlgH (natural protein, UniProt P0A1N8 22-232, looked up)
chain: CAWIPAKPLVQGATTAQPIPGPVPVANGSIFQSAQPINYGYQPLFEDRRPRNIGDTLTIVLQENVSASKSSSANASRDGKTSFGFDTVPRYLQGLFGNSRADMEASGGNSFNGKGGANASNTFSGTLTVTVDQVLANGNLHVVGEKQIAINQGTEFIRFSGVVNPRTISGSNSVPSTQVADARIEYVGNGYINEAQNMGWLQRFFLNLSPM
notes: FlgH, the lipoprotein that forms the L ring, Salmonella enterica serovar Typhimurium; made as a precursor with a cleavable N-terminal signal peptide; the atomic model holds the whole 211 residues of FlgH; 26 subunits form the L ring (C26 symmetry); also called L ring protein; H0; source: endogenous, Salmonella HK1002 cells; in the hook-basal body (HBB) purified by sucrose density-gradient …
[1]
  stoichiometry N: 26
[2]
  binding result: binds
